Experiments:
[1] = target: T1, wheat germ agglutinin (WGA) (Triticum vulgare, UniProt P10968 P10968:27-197); assay: filter; HBSS, room temp; printed as 11.3, SEQ 54; conditions: tags: free lectin, E Y Laboratories; label: 32P
T1 sequence: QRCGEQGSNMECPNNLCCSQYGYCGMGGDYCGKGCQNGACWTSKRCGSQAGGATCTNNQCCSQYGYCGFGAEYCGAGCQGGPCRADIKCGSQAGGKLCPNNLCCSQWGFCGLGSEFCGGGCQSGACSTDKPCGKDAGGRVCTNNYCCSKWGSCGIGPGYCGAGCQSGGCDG
Description: (§1) The specifically eluted fraction was processed for use in the following round. Fractions eluted from immobilized WGA were heated at 90° C. for 5 minutes in 1% SDS, 2% β-mercaptoethanol and extracted with phenol/chloroform. RNA was reverse transcribed into cDNA by AMV reverse transcriptase at 48° C. for 60 min in 50 mM Tris-Cl pH (8.3), 60 mM NaCl, 6 mM Mg(OAc)_2, 10 mM DTT, 100 pmol DNA primer, 0.4 mM each of dNTPs, and 0.4 unit/µl AMV RT. […] C) Nitrocellulose Filter Partitioning As described in SELEX Patent Applications, the nitrocellulose filter partitioning method was used to determine the affinity of RNA ligands for WGA and for other proteins. Filter discs (nitrocellulose/cellulose acetate mixed matrix, 0.45 µm pore size, Millipore; or pure nitrocellulose, 0.45 µm pore size, Bio-Rad) were placed on a vacuum manifold and washed with 4 ml of HBSS buffer under vacuum. Reaction mixtures, containing ^32P labeled RNA pools and unlabeled WGA, were incubated in HBSS for 10 min at room temperature, filtered, and then immediately washed with 4 ml HBSS. The filters were air-dried and counted in a Beckman LS6500 liquid scintillation counter without fluor. […]
The dissociation constants for representative members of families 1–9 and orphan ligands were determined by nitrocellulose filter binding experiments and are listed in Table III. […]

L-selectin (LS-Rg) [2] = target: T2, L-selectin (LS-Rg) (Homo sapiens, UniProt P14151 P14151:39-332); assay: filter; 4 C, HSMC; 5.5 nM at room temp; conditions: tags: human IgG2 Fc fusion (provided by A. Varki); label: 32P
T2 chain: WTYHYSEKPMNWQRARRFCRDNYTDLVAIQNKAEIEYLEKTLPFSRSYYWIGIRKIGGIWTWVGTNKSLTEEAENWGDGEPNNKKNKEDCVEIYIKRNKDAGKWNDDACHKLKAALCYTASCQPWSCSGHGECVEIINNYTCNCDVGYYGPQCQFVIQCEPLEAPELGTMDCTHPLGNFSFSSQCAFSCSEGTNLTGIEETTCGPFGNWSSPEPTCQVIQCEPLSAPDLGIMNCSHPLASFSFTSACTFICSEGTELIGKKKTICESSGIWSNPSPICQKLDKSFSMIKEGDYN
Description: (§2) As described in SELEX Patent Applications, the nitrocellulose filter partitioning method was used to determine the affinity of RNA ligands for LS-Rg and for other proteins. Filter discs (nitrocellulose/cellulose acetate mixed matrix, 0.45 um pore size, Millipore) were placed on a vacuum manifold and washed with 2 ml of HSMC buffer under vacuum. Reaction mixtures, containing ^32P labeled RNA pools and unlabeled LS-Rg, were incubated in HSMC for 10–20 min at 4° C., room temperature or 37° C., filtered, and then immediately washed with 4 ml HSMC at the same temperature. The filters were air-dried and counted in a Beckman LS6500 liquid scintillation counter without fluor.
(§3) The dissociation constants for representative ligands from rounds 13 and 14, including all orphans, were determined by nitrocellulose filter binding experiments and are listed in Table IX. These calculations assume two RNA ligand binding sites per chimera. The affinity of random RNA cannot be reliably determined but is estimated to be approximately 10 µM.

E-selectin (ES-Rg) [3] = target: T3, E-selectin (ES-Rg) (Homo sapiens, UniProt P16581 P16581:22-556); assay: filter; 4 C, HSMC; conditions: tags: human IgG1 Fc fusion (provided by A. Varki), chain copies: 2, label: 32P
T3 chain: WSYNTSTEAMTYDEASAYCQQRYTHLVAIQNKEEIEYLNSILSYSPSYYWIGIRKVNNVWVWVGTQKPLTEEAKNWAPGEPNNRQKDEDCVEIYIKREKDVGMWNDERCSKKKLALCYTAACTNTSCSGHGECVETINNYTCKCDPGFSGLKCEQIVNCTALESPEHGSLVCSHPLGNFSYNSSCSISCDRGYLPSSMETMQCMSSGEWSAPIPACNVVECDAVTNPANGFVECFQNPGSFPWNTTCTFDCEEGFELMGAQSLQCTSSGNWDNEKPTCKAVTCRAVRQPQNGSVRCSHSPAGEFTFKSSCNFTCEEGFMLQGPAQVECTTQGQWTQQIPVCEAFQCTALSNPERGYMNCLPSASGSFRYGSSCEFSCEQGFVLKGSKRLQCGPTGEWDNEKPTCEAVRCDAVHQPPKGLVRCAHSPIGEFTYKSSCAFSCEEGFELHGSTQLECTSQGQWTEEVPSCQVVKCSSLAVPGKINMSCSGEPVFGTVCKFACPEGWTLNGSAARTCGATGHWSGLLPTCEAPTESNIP
Description: as §2
(§4) The affinity of L-selectin ligands to ES-Rg, PS-Rg and CD22β-Rg were determined by nitrocellulose partitioning. […] In general, a ligand's affinity for ES-Rg is 10^3-fold lower and that for PS-Rg is about 10^4-fold less than for LS-Rg. […] The specificity of oligonucleotide ligand binding contrasts sharply with the binding of cognate carbohydrates by the selectins and confirms the assertion that SELEX ligands will have greater specificity than carbohydrate ligands.
(§5) *Dissociation constants were determined at 4° C. in HSMC buffer.

L-selectin (LS-Rg) [4] = target: T2, L-selectin (LS-Rg); assay: filter; 4 C, HSMC; 15.9 nM at room temp; conditions: tags: human IgG2 Fc fusion (provided by A. Varki); label: 32P; hairpin
Description: as §2, §3

[5] = target: T1, wheat germ agglutinin (WGA); assay: filter; HBSS, room temp; 11.4 nM in Table IV; conditions: tags: free lectin, E Y Laboratories; label: 32P; hairpin
Description: as §1, with “fluor. WGA is a homodimer, molecular weight 43.2 kD, with 4 GlcNAc binding sites per dimer. For affinity calculations, we assume one RNA ligand binding site per monomer (two per dimer).” for “fluor.”

[6] = target: T4, Ulex europaeus lectin UEA-II (Ulex europaeus, UniProt P22973 P22973:1-249); assay: filter; HBSS, room temp; conditions: tags: E Y Laboratories; label: 32P; hairpin
T4 sequence: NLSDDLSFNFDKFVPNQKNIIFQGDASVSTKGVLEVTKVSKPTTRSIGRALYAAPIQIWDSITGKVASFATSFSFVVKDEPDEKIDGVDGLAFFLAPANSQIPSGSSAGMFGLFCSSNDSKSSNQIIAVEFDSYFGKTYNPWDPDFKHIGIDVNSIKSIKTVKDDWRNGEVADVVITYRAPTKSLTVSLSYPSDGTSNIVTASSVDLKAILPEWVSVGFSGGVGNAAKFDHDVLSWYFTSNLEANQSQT
Description: as §1, with “fluor. WGA is a homodimer, molecular weight 43.2 kD, with 4 GlcNAc binding sites per dimer. For affinity calculations, we assume one RNA ligand binding site per monomer (two per dimer).” for “fluor.”

E-selectin (ES-Rg) [7] = target: T3, E-selectin (ES-Rg); assay: filter; room temp, Ca/Mg buffer; conditions: tags: extracellular domain fused to human IgG1 Fc (provided by A. Varki); chain copies: 2 (dimeric Fc chimera, inferred)
Description: (§6) RNA was reverse transcribed into cDNA by AMV reverse transcriptase at 48° C. for 60 min in 50 mM Tris-Cl pH (8.3), 60 mM NaCl, 6 mM Mg(OAc)_2, 10 mM DTT, 100 pmol DNA primer, 0.4 mM each of dNTPs, and 0.4 unit/µl AMV RT. […] C) Nitrocellulose Filter Partitioning As described in SELEX Patent Applications, the nitrocellulose filter partitioning method was used to determine the affinity of RNA ligands for WGA and for other proteins. Filter discs (nitrocellulose/cellulose acetate mixed matrix, 0.45 µm pore size, Millipore; or pure nitrocellulose, 0.45 µm pore size, Bio-Rad) were placed on a vacuum manifold and washed with 4 ml of HBSS buffer under vacuum. Reaction mixtures, containing ^32P labeled RNA pools and unlabeled WGA, were incubated in HBSS for 10 min at room temperature, filtered, and then immediately washed with 4 ml HBSS. The filters were air-dried and counted in a Beckman LS6500 liquid scintillation counter without fluor. WGA is a homodimer, molecular weight 43.2 kD, with 4 GlcNAc binding sites per dimer. For affinity calculations, we assume one RNA ligand binding site per monomer (two per dimer). The monomer concentration is defined as 2 times the dimer concentration. The equilibrium dissociation constant, K_d, for an RNA pool or specific ligand that binds monophasically is given by the equation $$K_d=[P_f][R_f]/[RP]$$
(§7) The affinity of representative cloned ligands for LS-Rg, ES-Rg, PS-Rg, CD22β-Rg and WGA was determined by nitrocellulose partitioning and the results shown in Table XIV. The ligands are highly specific for L-selectin.
(§8) *Kds were determined at room temperature.

P-selectin (PS-Rg) [8] = target: T5, P-selectin (PS-Rg) (Homo sapiens, UniProt P16109 P16109:42-321); assay: filter; room temp, Ca/Mg buffer; conditions: tags: lectin, EGF and first two CRD domains fused to human IgG1 Fc (provided by A. Varki); chain copies: 2 (dimeric Fc chimera, inferred)
T5 chain: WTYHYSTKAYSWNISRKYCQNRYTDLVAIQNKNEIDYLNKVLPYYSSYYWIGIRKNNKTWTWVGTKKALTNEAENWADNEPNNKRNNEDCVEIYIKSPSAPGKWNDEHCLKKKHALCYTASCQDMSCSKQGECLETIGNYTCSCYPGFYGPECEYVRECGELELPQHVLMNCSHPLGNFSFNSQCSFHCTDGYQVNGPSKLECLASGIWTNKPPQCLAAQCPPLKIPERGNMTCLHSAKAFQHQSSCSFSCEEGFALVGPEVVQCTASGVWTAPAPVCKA
Description: as §6, §7, §8

L-selectin (LS-Rg) [9] = target: T2, L-selectin (LS-Rg); assay: filter; room temp; 2.1 nM at 37 C; conditions: tags: human IgG2 Fc fusion (provided by A. Varki); label: 32P
P-selectin (PS-Rg) [10] = target: T5, P-selectin (PS-Rg); assay: filter; 4 C, HSMC; conditions: tags: human IgG1 Fc fusion (provided by A. Varki); chain copies: 2; label: 32P
Description: as §2, §4, §5

L-selectin (LS-Rg) [11] = target: T2, L-selectin (LS-Rg); assay: filter; 4 C, HSMC; 1.5 nM at room temp; conditions: tags: human IgG2 Fc fusion (provided by A. Varki); label: 32P
Description: as §2, §3

L-selectin (LS-Rg) [12] = target: T2, L-selectin (LS-Rg); assay: filter; 4 C, HSMC (Ca/Mg); biphasic, fraction 0.68, low affinity Kd 60 nM; 1.0 nM at room temp; conditions: tags: human IgG2 Fc fusion (provided by A. Varki); label: 32P; pseudoknot
Description: as §2, §3

L-selectin (LS-Rg) [13] = target: T2, L-selectin (LS-Rg); assay: filter; 4 C, HSMC; biphasic, fraction 0.65, low affinity Kd 14.5 nM; 142 nM at room temp; conditions: tags: human IgG2 Fc fusion (provided by A. Varki); label: 32P
Description: as §2, §3

B1: 11.30 (ssRNA)
RNA: GGGAAAAGCGAAUCAUACACAAGACGGUUGCUGAACAGAACGUGAGUCUUGGUGAGUCGCACAGAUUGUCCUGCUCCGCCAGAGACCAACCGAGAA
modifications: 2'-NH2 all C and U
B1 showed a Kd [1] of 56 nM.

B2: F13.42 (ssRNA)
RNA: GGGAGGACGAUGCGGGAUGUAAAUGACAAAUGAACCUCGAAAGAUUGCACACUCCAGACGACUCGCCCGA
modifications: 2'-NH2 all C and U
Binder B2 has a Kd (L-selectin (LS-Rg) [2]) of 2 nM and a Kd (E-selectin (ES-Rg) [3]) of 4400 nM.

B3: F14.21 (ssRNA)
RNA: GGGAGGACGAUGCGGUUGAGAUGUGUGAGUACAAGCUCAAAAUCCCGUUGGAGGCAGACGACUCGCCCGA
modifications: 2'-NH2 all C and U
With B3 the Kd (L-selectin (LS-Rg) [4]) was 2.3 nM and the Kd (E-selectin (ES-Rg) [3]; hairpin) was 2600 nM.

B4: 6.8 (ssRNA)
RNA: GGGAAAAGCGAAUCAUACACAAGAAAGGGAUGGGAUUGGGACGAGCGGCCAAGACUCGGCGGGAACGAAGGGUCCGCUCCGCCAGAGACCAACCGAGAA
modifications: 2'-NH2 all C and U
Binder B4 has a Kd [5] of 11 nM and a Kd [6] of 4400 nM.

B5: 122 (ssDNA)
DNA: CTACCTACGATCTGACTAGCGCAACGTGGCCCCGTTTAGCTCATTTGACCGTTCCATCCGGCTTACTCTCATGTAGTTCC
Binder B5 has a Kd (E-selectin (ES-Rg) [7]) of 400 nM, a Kd (P-selectin (PS-Rg) [8]) of 420 nM and a Kd (L-selectin (LS-Rg) [9]) of 1.8 nM.

B6: F13.55 (ssRNA)
RNA: GGGAGGACGAUGCGGUGUCUCUCCUGACUUUUAUUCUUAGUUCGAGCUGUCCUGGCAGACGACUCGCCCGA
modifications: 2'-NH2 all C and U
In the case of B6, the Kd (E-selectin (ES-Rg) [3]) is reported as 49 nM, the Kd (P-selectin (PS-Rg) [10]) is reported as 5800 nM and the Kd (L-selectin (LS-Rg) [11]) is reported as 0.062 nM.

B7: F14.20 (ssRNA)
RNA: GGGAGGACGAUGCGGUAACAACAAUCAAGGCGGGUUCACCGCCCCAGUAUGAGUGCAGACGACUCGCCCGA
modifications: 2'-NH2 all C and U
B7 gave a Kd (L-selectin (LS-Rg) [12]) of 0.058 nM and a Kd (E-selectin (ES-Rg) [3]; pseudoknot) of 70 nM.

B8: F14.53 (ssRNA)
RNA: GGGAGGACGAUGCGGUCCCAGAGUCCCGUGAUGCGAAGAAUCCAUUAGUACCAGACAGACGACUCGCCCGA
modifications: 2'-NH2 all C and U
B8 showed a Kd (L-selectin (LS-Rg) [13]) of 0.097 nM, a Kd (E-selectin (ES-Rg) [3]) of 355 nM and a Kd (P-selectin (PS-Rg) [10]) of 5200 nM.

Source: patent US6001988, “High affinity nucleic acid ligands to lectins” (NeXstar Pharmaceuticals, Inc.)
